Entries after “also recorded” stand apart in the source; their conditions may differ.
Key:
[1] = biological target: T1, EphrinB2 (Homo sapiens, UniProt P52799); assay: EphrinB2 (B2-AP) binding assay on affinity magnetic beads
T1 construct: protein fusion of Ephrin B2 ectodomain with placental alkaline phosphatase
Excerpt: To test whether the B4-HSA fusion property retained the ability of the EphB4 extracellular domain to bind to EphrinB2, the ability of the purified B4-HSA fusion was compared to that of GCF2F, GCF2, GC, CF and B4-Fc fusion, which comprises the extracellular domain of B4 fused to hIgG1 Fc as described in Example 1. Biotinylated or His-tag protein samples were inoculated with the corresponding affinity magnetic beads and B2-AP for an hour at room temperature, before addition of PnPP. Results of binding assays are shown on FIG. 67.
Fractions 1, 2 and 3 of biotinylated and PEGylated sB4 from the SP column purification, corresponding to polypegylated, monopegylated and unpegylated biotinylated sB4, were tested for their ability to bind EphrinB2 using the standard assay. Results of this experiment are shown on FIG. 72.

[2] = In vivo stability in mice after intravenous injection; parameters: species or system mouse; conditions: for stability in vivo relative to sB4 / EphB4 ectodomain: mice
Procedure: The stability of the purified biotinylated sB4 and sB4-HSA were assayed in vivo. Each of the proteins were intravenously injected into the tail of mice in the amount of 0.5 nmoles per mouse. Blood from the eye of each mouse was taken in time frames of 15 min (0 days), 1, 2, 3 and 6 days. […] of obtained serum was used in binding assay with Ephrin-B2-Alkaline Phosphatase fusion protein and Streptavidin-coated magnetic beads as a solid phase. […] For example, one day after injection, the levels of sB4-HSA in the blood of the mice were 5-fold greater than those of sB4.
Fractions 1, 2 and 3 of biotinylated and PEGylated sB4 from the SP column purification, corresponding to polypegylated, monopegylated and unpegylated biotinylated sB4, were introduced by intravenous injection into mice in the amount of 0.5 nMoles/mouse. Blood from each mouse was taken in time frame of 10 min, 1, 2 and 3 days. […] of obtained serum was used in binding assay with Ephrin-B2-Alkaline Phosphatase fusion protein and Streptavidin-coated magnetic beads as a solid phase. Signals, obtained at 10 min were taken as 100%. The two mice for each protein were of a different strain.

[3] = test system: EphB4; assay: EphB4 expression in PC3 cells on EGFR / IGF-1R blockade (Western blot); type: cell-based, human; conditions: AG1478 1 nM 36 hours, MAB391 2 μg/ml overnight
Procedure: A) Western blot of PC3 cells treated with or without EGFR specific inhibitor AG1478 (1 nM) for 36 hours. […] The membrane was stripped and reprobed with β-actin, which was unaffected. B) Western Blot of triplicate samples of PC3 cells treated with or without IGFR-1 specific neutralizing antibody MAB391 (2 μg/ml; overnight). The membrane was sequentially probed with EphB4, IGFR-1 and β-actin antibodies.

[4] = test system: EphB4; assay: EphB4 expression in HNSCC cell lines on EGFR inhibition (Western blot); type: cell-based, human
Procedure: Western blot of total cell lysates sequentially probed with EphB4 monoclonal antibody, stripped and reprobed with β-actin monoclonal antibody as described for FIG. 39C. B) Effect of the specific EGFR inhibitor AG1478 on EphB4 expression: Western blot of crude cell lysates of SCC15 treated with 0-1000 nM AG 1478 for 24 h in media supplemented with 10% FCS (left) or with […] AG 1478 for 4, 8, 12 or 24 h (right). Shown are membranes sequentially probed for EphB4 and β-actin. C) Effect of inhibition of EGFR signaling on EphB4 expression in SCC cell lines: Cells maintained in growth media containing 10% FCS were treated for 24 hr with 1 μM AG 1478, after which crude cell lysates were analyzed by Western blots of cell lysates sequentially probed with for EGFR, EphB4, ephrin B2 and β-actin antibodies. Specific signal for EGFR was detected at 170 kD and ephrin B2 at 37 kD in addition to EphB4 and β-actin as described in FIG. 1C. β-actin serves as loading and transfer control.

T1 sequence (P52799 28-229 limits assumed): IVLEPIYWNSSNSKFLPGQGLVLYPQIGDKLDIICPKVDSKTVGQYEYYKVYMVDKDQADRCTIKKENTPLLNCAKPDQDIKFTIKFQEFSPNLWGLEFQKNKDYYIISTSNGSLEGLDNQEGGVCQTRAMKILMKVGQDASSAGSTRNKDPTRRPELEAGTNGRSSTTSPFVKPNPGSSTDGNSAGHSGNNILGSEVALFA

| binding activity towards EphrinB2 [1] | binding to EphrinB2 compared with the B4-Fc fusion [1] | Compound | stability in vivo relative to sB4 / EphB4 ectodomain [2] | levels in the blood relative to sB4 ([2]; one day after injection, i.v. 0.5 nmoles per mouse) [fold] | EphB4 level [3] | total amount of EphB4 ([4]; SCC-9, -12, -13 and -71) | total amount of EphB4 ([4]; SCC-15 and SCC-25, 24 h, 1 µM) |
| --- | --- | --- | --- | --- | --- | --- | --- |
| retain most of its binding activity | superior | B4-HSA: EphB4 ectodomain fused to human serum albumin, mature form SEQ ID NO:19 | superior stability | 5 | – | – | – |
| retain the ability to bind | – | EphB4 ectodomain fusion to the C-terminus of HSA: EphB4 ectodomain fused to the C-terminus of HSA | enhanced stability | – | – | – | – |
| – | – | COc1cc2ncnc(Nc3cccc(Cl)c3)c2cc1OC [AG1478] | – | – | down-regulated; also recorded: Decreased EphB4 signal | no effect | marked loss |

Reference: patent publication US9533026B2, “Polypeptide compounds for inhibiting angiogenesis and tumor growth” (VasGene Therapeutics, Inc., priority 2004, dated 2017)
